Where a chain is given by its changes, count along the chain named.
B1: NB8: anti-PSMA camel nanobody (VHH, ~16 kDa) selected by phage display; PDB 6XXO (protein)
VHH: QVQLQESGGGSVQAGGSLRLSCARSGWPYSTYSMNWFRQAPGKEREAVAGISSTMSGIIFAESKAGQFTISQDNAKNTVYLQMNNLKPEDTAIYYCAARRDYSLSSSSDDFDYWGQGTQVTVSSAAAYPYDVPDYGS
B2: NB37: anti-PSMA camel nanobody (VHH, ~16 kDa) selected by phage display; PDB 6XXP (protein)
VHH: B1 VHH with Q13E
B3: NB13: anti-PSMA camel nanobody (VHH, ~16 kDa) selected by phage display (protein)
VHH: QVQLQESGGGSVQTGGSLRLSCAASGYTASFSWIGYFRQAPGKEREGVAVINVGVGSTYYADSVKGRFTISRDNTENTISLEMNSLKPEDTGLYYCAGSLRWSRPPNPISEDAYNYWGQGTQVTVSSAAAYPYDVPDYGS
B4: NB7: anti-PSMA camel nanobody (VHH, ~16 kDa) selected by phage display; PDB 6XXN (protein)
VHH: QVQLQESGGGSVQAGGSLRLSCTAPGYTDSNYYMSWFRQAPGKEREWVAGVNTGRGSTSYADSVKGRFTISQDNAKNTMFLQMNSLKPEDTAIYYCAVAACHFCDSLPKTQDEYILWGQGTQVTVSSAAAYPYDVPDYGS
B5: NB7 K43PrK: NB7 with lysine K43 changed to the non-natural amino acid PrK (protein)
VHH: B4 VHH with K43X
modifications: non-natural residues; left off: small tags and cut ends
notes: NB7 with lysine K43 changed to the non-natural amino acid PrK
B6: NB7cys: NB7 with an added cysteine in the C-terminus (protein)
VHH (part 1 of 2): B4 VHH
VHH (part 2 of 2): C
modifications: left off: small tags and cut ends
notes: NB7 with an added cysteine in the C-terminus

Key:
[1] = tested on: PC3-PIP cells; assay: Mitochondrial potential assay (TMRE); assay type: cell-based; conditions: 24 h, 1.5 μg/ml DOX or equivalent molar amount
Protocol: PC3-PIP cells (2×10^4) were seeded on 96-well plates. […] After 24 h, tetramethylrhodamine ethyl ester (TMRE; Abcam, UK) was added according to the protocol provided by the manufacturer. Fluorescence intensity was measured at an excitation wavelength of 549 nm and an emission wavelength of 575 nm.

[2] = molecular target: T1, PSMA (Homo sapiens, UniProt Q04609); assay: Surface plasmon resonance binding assay; conditions: for Koff / Kon: SPR, immobilized NB, 1:1 Langmuir model, 25° C., means ± SD; for binding constant (Ka) to PSMA: stated per SEQ ID NO in the description
T1 construct: purified extracellular domain of PSMA [residues 44-750; purchased from Caltech Protein Expression Center, CA]; purchased Caltech Protein Expression Center, CA
T1 sequence (Q04609 44-750): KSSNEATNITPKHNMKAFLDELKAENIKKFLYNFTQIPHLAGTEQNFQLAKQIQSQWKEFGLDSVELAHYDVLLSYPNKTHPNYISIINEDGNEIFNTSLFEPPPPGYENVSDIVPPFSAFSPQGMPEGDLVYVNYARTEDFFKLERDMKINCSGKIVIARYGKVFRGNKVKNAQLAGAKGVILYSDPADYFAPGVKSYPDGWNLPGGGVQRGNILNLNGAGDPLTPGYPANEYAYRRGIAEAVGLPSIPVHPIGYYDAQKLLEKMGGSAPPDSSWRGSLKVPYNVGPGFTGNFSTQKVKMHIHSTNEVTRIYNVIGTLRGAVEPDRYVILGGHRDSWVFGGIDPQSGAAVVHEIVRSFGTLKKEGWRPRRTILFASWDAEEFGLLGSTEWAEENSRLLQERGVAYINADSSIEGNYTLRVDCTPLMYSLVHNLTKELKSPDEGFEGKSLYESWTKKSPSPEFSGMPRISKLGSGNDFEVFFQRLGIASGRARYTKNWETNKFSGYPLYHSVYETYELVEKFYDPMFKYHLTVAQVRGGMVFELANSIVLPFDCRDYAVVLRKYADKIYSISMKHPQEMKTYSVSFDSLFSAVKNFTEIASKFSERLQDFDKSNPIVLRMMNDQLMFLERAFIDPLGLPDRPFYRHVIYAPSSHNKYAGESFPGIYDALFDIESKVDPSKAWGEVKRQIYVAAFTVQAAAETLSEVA
Protocol: The affinity of each NB to PSMA was determined by using surface plasmon resonance (SPR) spectroscopy on a ProteOn XPR36 chip (Bio-Rad, CA). The chip was activated by using sulfo-NHS (0.1 M N-hydroxysuccinimide) and EDC [0.4 M 1-ethyl-3-(3-dimethylaminopropyl)-carbodiimide]. Each NB (0.2 μg) was immobilized in a 10 mM sodium acetate buffer, pH 5.0, at a flow rate of 30 μl/min. Bovine serum albumin (BSA) (3 μg) was immobilized on the chip as a negative control. Unbound esters were deactivated with 1 M ethanolamine HCl at pH 8.5. The soluble PSMA was then applied over the chip at concentrations of 2.94, 5.88, 11.75, 23.50, or 47.00 nM (for NBs 8, 13, and 37) or of 25, 50, 100, 1,600, or 3,200 pM (for NB7), at a flow rate of 25 μl/min. During this time, the association between the NBs and PSMA was measured. The dissociation was measured while flowing 50 μl/min PBST (namely, a phosphate-buffered saline with 0.005% Tween). For each protein complex, a binding sensogram was generated by subtracting the values of the PSMA response to BSA from those of the PSMA response to the NBs. The dissociation constant (KD) was determined from the Langmuir 1:1 kinetic model. The temperature throughout the binding measurements was set at 25° C.

[3] = molecular target: T1, PSMA; assay: Small-angle X-ray scattering of PSMA-NB complexes; conditions: for Dmax / Rg: PSMA + NB; for shift of Rg of PSMA-NB complex from the original Rg of PSMA (43 Å) / change of Dmax on binding of PSMA to NB: SAXS; for shift of Rg of PSMA-NB complex from the original Rg of PSMA (43 Å): PSMA 0.5 mg/ml; for change of Dmax on binding of PSMA to NB: PSMA alone 115 Å
Protocol: The small-angle X-ray scattering (SAXS) of monomeric PSMA was measured in PBS at a final concentration of 0.5-3 mg/ml. For PSMA-NB complex samples, the concentration of PSMA was 0.5 mg/ml and the concentrations of the NBs were 0.1-0.5 mg/ml. Measurements were performed in beamline BM29 at the ESRF. The X-ray wavelength was 1.5 Å and the temperature was 4° C. The detector was Pilatus 1 M and the sample-to-detector distance was set at 2.86 m, with a scattering vector (q) range of 0.0025-0.5 Å^−1. At a scattering angle of 2θ, the magnitude of the scattering vector (q) is defined as: […]
The experimental SAXS data for all samples were linear in the low q, Guinier region. The radii of gyration (Rg) were derived from data in the qRg<1 region by using the Guinier approximation:
The inventors analyzed the small-angle region (0.012<q<0.08 Å^−1) of the scattering profiles using the Guinier approximation embedded in the GNOM method.
The scattering curve reflects structural characteristics in reciprocal space. Scattering profiles were translated into real space by Fourier transformation, resulting in the pairwise-distance distribution function P(r). This function reflects the distances between pairs of scattering points within the macromolecule, allowing the determination of the maximum dimension of the particle (Dmax). To obtain a reliable quantification of Dmax, the inventors incorporated GNOM with in-house scripts. The Rg of monomeric PSMA extracted from SAXS data was compared to the calculated Rg from the crystal structure of monomeric PSMA (PDB 3D7D) using CRYSOL. The overall three-dimensional ab initio models of PSMA and PSMA-NB complexes were restored from the experimental scattering data by using Dammin. Shape reconstruction was performed to represent the molecular shape as a closely packed sphere assembly within a search volume defined by Dmax, chosen with a χ^2<1.3 for all models. For all samples, 20 low-resolution models were averaged using the program DAMAVER to yield an averaged model representing the general structural features of each reconstruction.

[4] = tested on: PC3-PIP (PSMA+) and PC3-flu (PSMA−) xenografts; assay: In vivo optical (NIR) imaging of labeled NBs; parameters: species or system athymic nude mice; conditions: for duration until the fluorescent signal was no longer detected (late time point): whole-body NIR imaging, 1.5 nmole AlexaFluor680-labeled NB i.v.
Protocol: Tumor xenografts were generated in 6-week old male athymic nude mice by using PC3-PIP and PC3-flu cells. Each mouse was simultaneously injected subcutaneously with 2×10^6 cells of each line, diluted 1:1 with Matrigel (Corning, USA); PC3-PIP cells were injected above the right upper flank, while PC3-flu cells were injected above the left one. Nine days after the inoculation, as the tumors reached a size of ˜200 mm^3, these mice were injected intravenously with 1.5 nmole of either NB7, NB8, NB13, or NB37 (four mice per group) labeled with NHS-ester AlexaFluor680 (Invitrogen). In addition to these 16 mice, four tumor-bearing mice were not injected with any NB, while four other mice were injected with the labeled NBs (a different NB per mouse) but were not implanted with a xenograft. The mice were anesthetized with isoflurane at different time points (see below) and the distribution of the fluorescently labeled protein was measured in near infra-red (NIR) optical imaging using the IVIS Lumina system (PerkinElmer, USA). Exposure time was set at 1 s. The fluorescence signal was measured at the time of injection, and 0.5, 1, 2, 3, 6, 10, 18, 24, 28, 32, 36, 48 and 56 h after injection. Images of the mice were acquired 3 and 6 h after injection, and again when a signal was no longer detected (24-56 h after injection). At each time point, one mouse from each group of tumor-bearing mice that had been injected with a NB was euthanized for an ex vivo quantification of the fluorescent signal in its organs, using the Living Image software.

[5] = tested on: PC3-PIP cells; assay: Time-dependent quantification of NB internalization; assay type: cell-based; conditions: 100 nM, imaged every 40 min for 16 h
Protocol: NB7, NB8, NB13, and NB37, each labeled with Dylight488, were individually incubated for 1 h (at 100 nM) in a 96-well plate. On each well, 1.5×10^4 PC3-PIP cells were seeded and grown overnight, and then the wells were imaged every 40 min for a total of 16 h, using the Operetta CLS high-content analysis system (Perkin Elmer). Each well was imaged as 24 fields, which were later combined to create an image of the entire well. Using the Operetta analysis software, the cells were qualitatively classified into two groups according to the distribution of NBs: (i) mostly on the cell membrane, and (ii) mostly inside the cytoplasm. The number of cells in each group was quantified at each time point and the ratio between the numbers of cells in each group was calculated.

[6] = tested on: PC3-PIP (PSMA+) cells; assay: FACS cell binding assay, PC3-PIP cells; assay type: cell-based; conditions: effect of K43PrK mutation
Protocol: Once the cells reached 70% confluence, 10^5 cells were added to each well of 96-well U-shaped bottom plates (Greiner Bio-One, Austria), centrifuged at 150 g for 5 min, and washed with PBSA (namely, PBS+1 g/1 BSA). NBs were added to the cells in concentrations of 0.1, 0.5, 2, 5, 10, 20, 50, 100, 500, or 1000 nM. The cells were incubated with the NBs for 2 h, followed by three PBSA washing steps. An anti-His antibody conjugated to fluorescein isothiocyanate (FITC) (Invitrogen) was then added at a dilution of 1:100, incubated with the cells for 1 h, and washed three times with PBSA. The cells were kept on ice throughout the experiment. The fluorescence of each sample was measured using an Accuri C6 flow cytometry analyzer (BD Biosciences, CA). Each experimental condition was repeated three times. To generate a titration curve, the value for each sample was determined using the equation:
[formula] where Fsample is the mean fluorescence value, Flow is the fluorescence at the lowest concentration for PC3-PIP cells, and Fhigh is the fluorescence at the highest concentration for PC3-PIP cells. A binding curve was generated using GraphPad Prism 5.0.

[7] = tested on: PC3-PIP cells; assay: Cell viability assay (propidium iodide, FACS); assay type: cell-based; conditions: 24 h, 1.5 μg/ml DOX or equivalent molar amount
Protocol: PC3-PIP cells were grown and treated as described in the cell quantification assay section, above. The cells were harvested, incubated with 0.5 μg propidium iodide (PI; Biolegend), and their fluorescence intensity was measured in a BD C6 flow cytometer.

Row | Molecule | mitochondrial membrane potential (TMRE signal) [1] | Koff [2] [s⁻¹] | Kon [2] [M⁻¹ s⁻¹] | binding constant (Ka) to PSMA [2] | Dmax ([3]; method GNOM) [Å] | Rg ([3]; method GNOM) [Å] | Rg ([3]; method Guinier) [Å] | shift of Rg of PSMA-NB complex from the original Rg of PSMA (43 Å) [3] | change of Dmax on binding of PSMA to NB [3] | signal intensity in the PC3-PIP tumor ([4]; ex vivo, after 3 h) | signal intensity in the PC3-flu tumor ([4]; ex vivo, after 3 h) | signal intensity in the kidneys ([4]; ex vivo, after 3 h) | duration until the fluorescent signal was no longer detected (late time point) [4] [h] | internalization into PSMA-expressing cells (cytoplasm/membrane ratio over time) [5] | binding to PC3-PIP cells versus NB7, FACS [6] | PI signal (late apoptosis and necrosis) [7]
1 | Carbonyl cyanide 4-(trifluorornethoxy) phenythydrazone [FCCP] | significantly reduced the mitochondrial membrane potential |  |  |  |  |  |  |  |  |  |  |  |  |  |  | 
2 | B1 |  | 0.00012 ± 5.3e-07 | 20000 ± 42 | about 2×10^4 M^−1 s^−1 | 100 | 39.4 | 40.5 | lower Rg | decreased it | 171,000 counts/cm^2/s | 21,300 counts/cm^2/s | 94,700 counts/cm^2/s | 32 |  |  | 
3 | B2 |  | 7.5e-05 ± 6.6e-07 | 22000 ± 53 | about 2.2×10^4 M^−1 s^−1 | 110 | 38.6 | 40.4 | lower Rg | decreased it |  |  |  | 24 |  |  | 
4 | B3 |  | 2.2e-05 ± 9.9e-07 | 36000 ± 89 | about 3.6×10^4 M^−1 s^−1 | 120 | 40.5 | 43.8 | lower Rg | increased Dmax |  |  |  | 32 | much faster |  | 
5 | B4 |  | 3.9e-05 ± 2.8e-07 | 710000 ± 450 | about 7.1×10^5 M^−1 s^−1 | 120 | 42.4 | 48.2 | higher Rg | increased Dmax |  |  |  | > 56 | much faster |  | 
6 | B5 |  |  |  |  |  |  |  |  |  |  |  |  |  |  | no significant change in binding | 
7 | B6 |  |  |  |  |  |  |  |  |  |  |  |  |  |  |  | did not change the PI signal
